Test results as given in patent US20170306033A1 (Amgen, published 2017).
Changes are numbered by the printed parent chain.

Assays:
[1] = molecular target: human CGRP receptor (human, UniProt Q16602 23-461; O60894 27-148); test: cell-based or functional assay
[2] = molecular target: T1, human PAC1 receptor (human, UniProt P41586 21-468); test: cell-based or functional assay
T1 sequence: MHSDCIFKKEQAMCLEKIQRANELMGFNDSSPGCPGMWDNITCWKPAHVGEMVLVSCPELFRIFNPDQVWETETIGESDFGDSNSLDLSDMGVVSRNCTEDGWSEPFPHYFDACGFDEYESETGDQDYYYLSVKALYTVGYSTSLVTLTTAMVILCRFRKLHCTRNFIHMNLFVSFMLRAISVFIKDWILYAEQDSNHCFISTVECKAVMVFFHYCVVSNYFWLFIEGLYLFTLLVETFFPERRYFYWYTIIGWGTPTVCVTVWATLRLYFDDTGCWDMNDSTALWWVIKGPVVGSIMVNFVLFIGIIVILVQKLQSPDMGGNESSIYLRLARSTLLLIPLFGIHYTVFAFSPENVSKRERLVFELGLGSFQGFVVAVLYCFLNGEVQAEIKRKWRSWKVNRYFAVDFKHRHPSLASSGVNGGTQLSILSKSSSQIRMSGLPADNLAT

Chain of human CGRP receptor (Q16602 23-461 limits assumed, chain 1 of 2): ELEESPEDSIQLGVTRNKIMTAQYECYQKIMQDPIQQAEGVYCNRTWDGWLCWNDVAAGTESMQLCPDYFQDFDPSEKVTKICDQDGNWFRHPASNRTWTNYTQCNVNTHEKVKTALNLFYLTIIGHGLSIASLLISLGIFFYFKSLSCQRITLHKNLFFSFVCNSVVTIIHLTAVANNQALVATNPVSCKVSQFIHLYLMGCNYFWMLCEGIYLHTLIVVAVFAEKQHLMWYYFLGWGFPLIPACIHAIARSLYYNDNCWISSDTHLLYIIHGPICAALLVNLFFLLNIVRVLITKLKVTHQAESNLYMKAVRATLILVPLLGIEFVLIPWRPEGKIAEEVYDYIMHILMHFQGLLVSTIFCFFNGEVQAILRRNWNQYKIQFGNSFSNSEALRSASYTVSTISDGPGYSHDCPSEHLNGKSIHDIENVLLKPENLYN
Chain of human CGRP receptor (O60894 27-148 limits assumed, chain 2 of 2): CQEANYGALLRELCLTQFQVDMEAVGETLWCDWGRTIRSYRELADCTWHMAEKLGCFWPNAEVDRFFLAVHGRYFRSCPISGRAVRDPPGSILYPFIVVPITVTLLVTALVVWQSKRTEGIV

B1: iPS:327270 (bispecific antibody, human IgG1, kappa, lambda, N297G)
light 1: EIVLTQSPATLSLSPGERATLSCRASQSVGRSLHWYQQKPGQAPRLLIKYASQSLSGIPARFSGSGSGTDFTLTISSLEPEDFAVYYCHQSSRLPFTFGPGTKVDIKRTVAAPSVFIFPPSDEQLKSGTASVVCLLNNFYPREAKVQWKVDNALQSGNSQESVTEQDSKDSTYSLESTLTLSKADYEKHKVYACEVTHQGLSSPVTKSFNRGEC
heavy 1: not shown
light 2: not shown
heavy 2: not shown
For B1, the “% inhibition of human CGRPR” value [1] was 71% and the “% inhibition of human PAC1” value [2] was 82%.

B2: iPS:327112 (bispecific antibody, human IgG1, kappa, lambda, N297G)
light 1: B1 light 1
heavy 1: not shown
light 2: not shown
heavy 2: not shown
B2 was tested, and the “% inhibition of human CGRPR” value [1] was 84% and the “% inhibition of human PAC1” value [2] was 104%.

B3: iPS:327105 (bispecific antibody, human IgG1, kappa, lambda, N297G)
light 1: DIQMTQSPSSLSASVGDRITITCRASQSISRYLNWYQQKPGKAPKLLIYAASSLQSGIPSRFSGSGSGTDFTLTINSLQPEDFATYFCQQSYSPPFTFGEGTKVDIKRTVAAPSVFIFPPSDEQLKSGTASVVCLLNNFYPREAKVQWKVDNALQSGNSQESVTEQDSKDSTYSLESTLTLSKADYEKHKVYACEVTHQGLSSPVTKSFNRGEC
heavy 1: not shown
light 2: not shown
heavy 2: EVQLVESGGGLVKPGGSLRLSCAASGFTFGNAWMSWVRQAPGKELEWVGRIKSKTDGGTTDYAAPVKGRFTISRDDSKNTLYLQMNSLKTEDTAVYFCTTDRTGYSISWSSYYYYYGMDVWGQGTTVTVSSASTKGPSVFPLAPSSKSTSGGTAALGCLVKDYFPEPVTVSWNSGALTSGVHTFPAVLQSSGLYSLESVVTVPSSSLGTQTYICNVNHKPSNTKVDKKVEPKSCDKTHTCPPCPAPELLGGPSVFLFPPKPKDTLMISRTPEVTCVVVDVSHEDPEVKFNWYVDGVEVHNAKTKPCEEQYGSTYRCVSVLTVLHQDWLNGKEYKCKVSNKALPAPIEKTISKAKGQPREPQVYTLPPSRKEMTKNQVSLTCLVKGFYPSDIAVEWESNGQPENNYKTTPPVLKSDGSFFLYSKLTVDKSRWQQGNVFSCSVMHEALHNHYTQKSLSLSPGK
For B3, the “% inhibition of human CGRPR” value [1] was 81% and the “% inhibition of human PAC1” value [2] was 63%.

B4: iPS:327272 (bispecific antibody, human IgG1, kappa, lambda, N297G)
light 1: B3 light 1
heavy 1: not shown
light 2: not shown
heavy 2: B3 heavy 2 with G30S, A63T, T90A, F97Y
B4 was tested, and the “% inhibition of human CGRPR” value [1] was 81% and the “% inhibition of human PAC1” value [2] was 62%.

B5: iPS:327273 (bispecific antibody, human IgG1, kappa, lambda, N297G)
light 1: not shown
heavy 1: not shown
light 2: not shown
heavy 2: B3 heavy 2 with G30S, A63T, T90A, F97Y
For B5, the “% inhibition of human CGRPR” value [1] was 81% and the “% inhibition of human PAC1” value [2] was 10%.

B6: iPS:327111 (bispecific antibody, human IgG1, kappa, lambda, N297G)
light 1: DIQLTQSPSFLSASVGDRVTITCRASQSIGRSLHWYQQKPGKAPKLLIKYASQSLSGVPSRFSGSGSGTEFTLTISSLQPEDFATYYCHQSSRLPFTFGPGTKVDIKRTVAAPSVFIFPPSDEQLKSGTASVVCLLNNFYPREAKVQWKVDNALQSGNSQESVTEQDSKDSTYSLESTLTLSKADYEKHKVYACEVTHQGLSSPVTKSFNRGEC
heavy 1: not shown
light 2: not shown
heavy 2: not shown
In the case of B6, the “% inhibition of human CGRPR” value [1] is reported as 88% and the “% inhibition of human PAC1” value [2] is reported as 65%.
